Test results taken from patent CN113045663A (SHENZHEN INNOVA NANOBODI CO LTD, dated 2021).

Target: T1, 血清标本中的HE4抗原 (human, UniProt Q14508 31-124, limits assumed)
T1 construct: Serum HE4 detected in the sandwich assay; kept apart from the recombinant antigen; also called 血清中HE4; 质控血清HE4
T1 sequence (looked up): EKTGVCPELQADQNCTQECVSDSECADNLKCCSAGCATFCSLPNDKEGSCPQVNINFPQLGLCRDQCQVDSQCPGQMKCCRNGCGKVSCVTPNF
Assay: double-antibody sandwich chemiluminescent ELISA, capture antibody

binding result: binds
B1: FC融合纳米抗体3C8 (Fc fusion)
chain: QLQESGGGLVQAGGSVRLSCAASGRTFRRYHMGWFRQTPGKEREFVAAISWSGGTTYYAESVKGRFTISRDNAKNTIYLQMNSLKPEDTAVYYCAPTYGNYWHPSGYWGQGTQVTVSS
notes: Capture antibody of the double-antibody sandwich assay; also called 3C8 (捕获一抗); 捕获抗体3C8; not shown: Fc part and any linker
